According to patent publication US20220281965A1 (AstraZeneca / MedImmune, published 2022):
Changes are numbered by the printed parent chain.

T1: mature human GDF-15 (human, UniProt Q99988 197-308)
T1 construct: Homodimer; also called hGDF-15; recombinant hu-GDF15
T1 sequence: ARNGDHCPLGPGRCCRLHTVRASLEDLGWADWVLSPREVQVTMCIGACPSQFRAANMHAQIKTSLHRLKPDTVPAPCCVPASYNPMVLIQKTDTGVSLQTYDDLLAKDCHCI

T2: human BMP7 (R&D Systems 354-BP/CF) (human, UniProt P18075 293-431)
T2 construct: Bought protein, adsorbed on the ELISA plate
T2 sequence (looked up): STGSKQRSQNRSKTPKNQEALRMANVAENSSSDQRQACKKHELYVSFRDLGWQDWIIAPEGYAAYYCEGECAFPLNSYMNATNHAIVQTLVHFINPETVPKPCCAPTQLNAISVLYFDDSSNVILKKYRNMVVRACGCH

T3: mouse GDF-15 (mouse, UniProt Q9Z0J7 189-303)
T3 construct: also called mGDF-15
T3 sequence: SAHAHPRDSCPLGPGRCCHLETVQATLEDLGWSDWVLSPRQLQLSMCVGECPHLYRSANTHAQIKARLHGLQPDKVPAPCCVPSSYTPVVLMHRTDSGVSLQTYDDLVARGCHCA

T4: biotinylated human H202D GDF-15 variant (human, UniProt Q99988 197-308, biotinylated, sites not stated)
T4 construct: also called Human GDF-15 H202D
T4 chain: T1 sequence with H6D

T5: biotinylated cynomolgus GDF-15 (cynomolgus, UniProt G7PWZ3 197-308, biotinylated, sites not stated)
T5 construct: also called Cyno GDF-15
T5 sequence: T1 sequence with H6R, R21H, A54E, T63M, S64N, I112V

B1: AB1170246 (antibody, IgG1, V domains shown)
VH: QVQLQESGPGLLKPSQTLSLTCTVSGFSLITSGLGVSWIRQPAGKGLEWLAHIYWDDDKRYNPSLKSRLTISKDTSKNQVSLKLSSVTAADTAVYYCARGGYDGYYDYWGQGTTVTVSS
VL: DVVMTQSPLSLPVTLGQPASISCRSSQSIVHSNGNTNLEWYLQKPGQSPQLLIYKVSNRLSGVPDRFSGSGSGTDFTLKISRVEAEDVGVYYCFQGSHVRTFGQGTKLEIK
notes: Humanized IgG1 TM; not shown: human immunoglobulin kappa light chain constant domain
B2: AB1170002 (antibody, V domains shown)
VH: QVTLKESGPGILQPSQTLSLTCSFSGFSLSTYGMGVGWIRQPSGKGLEWLANIWWNDDKYYNSALKSRLTISKDTSNNQVFLKISSVDTADTVTYYCAQVGYDWFAYWGQGTLVTVSS
VL: EIVLTQSPALMAASPGEKVTITCSVSSSISSSNLHWYQQKSETSPKPWIYGTSNLASGVPVRFSGSGSGTSYSLTISSMEAEDAATYYCQQCSSYPLTFGAGTKLELK
B3: AB1170241 (antibody, IgG1, V domains shown)
VH: QVQLVQSGSELKKPGASVKVSCKASGYTFTDYNMDWIRQSPGKGLEWIGDINPNQGGTFYNQKFKDRATLTVDKSTSTAYMELRSLRSDDTAVYYCAREEKLYFGLMDYWGQGTTVTVSS
VL: DIQMTQSPSSLSASVGDRVTITCRASENIYSYLAWYQQKPGKAPKLLVYNAKTLAEGVPSRFSGSGSGIDFTLTISSLQPEDFATYYCQHQYGSPPTFGQGTKLEIK
notes: Humanized IgG1 TM; Made from AB1170243 by changing NNG to NQG in heavy chain CDR2; not shown: human immunoglobulin kappa light chain constant domain
B4: AB1170248 (antibody, IgG1, V domains shown)
VH: QVQLVQSGSELKKPGASVKVSCKASGYTFTDYNMDWVRQAPGKGLEWIGDINPYNGITIYNQKFKGRATLTVDKSTSTAYMELRSLRSDDTAVYYCAREEKLGTSFDYWGQGTTVTVSS
VL: B3 VL with Y32N, N50A, K52T, T53N, E56D, I69T, Q91F, S94T, P96W
notes: as for B1
B5: AB1170243 (antibody, IgG1, V domains shown)
VH: B3 VH with Q55N
VL: B3 VL
notes: Humanized IgG1 TM; also called human anti-human GDF-15 IgG; not shown: human immunoglobulin kappa light chain constant domain
B6: AB1170247 (antibody, IgG1, V domains shown)
VH: QVQLVQSGSELKKPGASVKVSCKASGYTFTSYDINWVRQAPGQGLEWIGWIYPRDGISKYNEKFKGRATLTVDTSASTAYMELSSLRSEDTAVYYCAGTYDPAYFDYWGQGTTVTVSS
VL: EIVLTQSPATLSVSPGERATLSCRASQSISYYLHWYQQKPGQAPRLLIKYASQSISGVPDRFSGSGSGTDFTLKISRVEAEDFGVYYCQQSNSWPYTFGGGTKVEIK
notes: as for B1
B7: AB1170244 (antibody, IgG1, V domains shown)
VH: EVQLVESGGGLVKPGGSLRLSCAASGFTFSSYAMSWVRQAPGKGLEWVAYISSGGDNIYYADTVKGRFTISRDNSKNTLYLQMNSLKTEDTAVYYCTRALVENAYFDYWGQGTTVTVSS
VL: DSVLTQSPDSLAVSLGERATINCRASKSVSTSTYSYMHWYQQKPGQPPKLLIKYASYLESGVPDRFSGSGSGTDFTLKISRVEAEDVGVYYCQHSREFPWTFGGGTKVEIK
notes: as for B1
B8: AB1170245 (antibody, IgG1, V domains shown)
VH: B7 VH with N57Y, E102D
VL: DIVLTQSPDSLAVSLGERATINCRASKSVSTSSYSYMHWYQQKPGQPPKLLIKYASYLEFGVPSRFSGSGSGTDFTLTISSLQPEDVATYYCQHSREFPWTFGGGTKVEIK
notes: as for B1
B9: AB1170242 (antibody, IgG1, V domains shown)
VH: QVQLQESGPGLLKPSQTLSLTCTVSGFSLSTYGMGVGWIRQPAGKGLEWLANIWWNDDKYYNSALKSRLTISKDTSKNQVSLKLSSVTAADTAVYYCAQEVYGWFAYWGQGTLVTVSS
VL: DIQMTQSPSTLSASVGDRVTITCKASQNVGTNVAWYQQKPGQPPKALIYSASYRYSGVPDRFSGSGSGTDFTLTISSLQAEDVAVYYCQQYNSYPLTFGQGTKLEIK
notes: as for B1
B10: AB1170249 (antibody, IgG1, V domains shown)
VH: B9 VH with A43L, E100M, V101A, G103S
VL: B9 VL with T10F, V29M, G30D, L96F
notes: as for B1

Tests used:
mature human GDF-15 = molecular target: T1, mature human GDF-15; experiment: HTRF epitope competition; competitor DyLight 650 labelled Antibody A; Europium labelled human GDF-15
Text: Antibodies from the immunizations with human GDF-15, in the form of crude supernatants from the immunization or in the form of purified IgGs, were chosen on the basis that they bind and compete with an epitope recognized by a control anti-GDF-15 antibody “Antibody A”. A biochemical epitope competition format was applied using an HTRF epitope competition assay that measured the binding of DyLight 650 labelled Antibody A to Europium labelled human GDF-15 (Prospec). In the absence of Antibody A binding, there is no detectable FRET fluorescence. When Antibody A binds to GDF-15, the resulting physical proximity between the secondary reagent donor/acceptor pair results in FRET. Competition with an antibody that recognizes the same or similar epitope will result in a dose dependent reduction of the FRET signal. FRET was measured ratiometrically [665 nm (acceptor)/620 nm (donor)] on an Envision plate reader, and IC₅₀ values were determined by curve fitting the data to a four parameter logistic equation using PRISM 6® software (Graphpad).

[1] = molecular target: T2, human BMP7 (R&D Systems 354-BP/CF); experiment: antigen presentation ELISA: human BMP7 adsorbed on a Nunc Maxisorp plate, titration of IgG, anti-human IgG-HRP, TMB, absorbance at 450 nm
Protocol: (§1) Purified humanized IgGs were screened for binding to human GDF-15 over two further members of the same family, TGFβ1 (R&D Systems 240-B) and BMP7 (R&D Systems 354-BP/CF), using a standard antigen presentation ELISA. Human GDF-15, human TGFβ1 or human BMP7 were adsorbed onto a Nunc Maxisorp™ plate. After removal of excess unbound antigen, a titration of test IgG was added to the plate. After a 1-hour incubation, the unbound IgG was removed. The extent of IgG binding was determined by addition of an anti-human IgG antibody conjugated to the horseradish peroxidase (HRP) enzyme and measuring the optical absorbance at 450 nm of the product of its reaction with the substrate TMB.

[2] = molecular target: T6, human TGFβ1 (R&D Systems 240-B) (human, UniProt P01137 279-390); experiment: antigen presentation ELISA: human TGFβ1 adsorbed on a Nunc Maxisorp plate, titration of IgG, anti-human IgG-HRP, TMB, absorbance at 450 nm
T6 construct: Bought protein, adsorbed on the ELISA plate
T6 sequence (P01137 279-390 limits assumed): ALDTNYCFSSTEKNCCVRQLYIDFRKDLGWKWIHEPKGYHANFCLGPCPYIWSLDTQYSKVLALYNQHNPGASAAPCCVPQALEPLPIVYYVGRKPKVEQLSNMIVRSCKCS
Protocol: as §1

mouse GDF-15 = molecular target: T3, mouse GDF-15; experiment: HTRF binding assay, biotinylated mouse GDF-15
Text: (§2) Supernatants generated from the immunizations with human GDF-15 and purified IgGs were screened to identify IgGs with specific binding to human, cynomolgus, or mouse GDF-15. The HTRF (Homogeneous Time Resolved Fluorescence) assay is based on detection of a measurable FRET signal upon binding of a titration of test antibody to biotinylated human H202D GDF-15 variant, cynomolgus GDF-15 and mouse GDF-15. Europium cryptate (EuK) labelled Streptavidin and anti-human IgG XL665 (Cis Bio) were used as secondary detection reagents serving as energy donor and acceptor respectively. In the absence of test antibody binding, there is no detectable FRET fluorescence. When test antibody binds to GDF-15, the resulting physical proximity between the secondary reagent donor/acceptor pair results in FRET. FRET was measured ratiometrically [665 nm (acceptor)/620 nm (donor)] on an Envision plate reader, and data plotted using PRISM 6® software (Graphpad).

[3] = molecular target: T4, biotinylated human H202D GDF-15 variant; experiment: HTRF binding assay, biotinylated antigen, titration of antibody
Text: as §2

[4] = molecular target: T5, biotinylated cynomolgus GDF-15; experiment: as above
Text: as §2

IC50 (mature human GDF-15)	binding result [1]	binding result [2]	binding result (mouse GDF-15)	binding result [3]	binding result [4]	Binder
4.99 nM	no binding (tested: 5 µg/mL)	no binding (tested: 5 µg/mL)				B1
6.1 nM			no binding	binds	binds	B2
0.212 nM	no binding (tested: 5 µg/mL)	no binding (tested: 5 µg/mL)				B3
1.58 nM	no binding (tested: 5 µg/mL)	no binding (tested: 5 µg/mL)				B4
0.155 nM	no binding (tested: 5 µg/mL)	no binding (tested: 5 µg/mL)				B5
11.3 nM	no binding (tested: 5 µg/mL)	no binding (tested: 5 µg/mL)				B6
1.17 nM	no binding (tested: 5 µg/mL)	no binding (tested: 5 µg/mL)				B7
2.23 nM	no binding (tested: 5 µg/mL)	no binding (tested: 5 µg/mL)				B8
0.288 nM	no binding (tested: 5 µg/mL)	no binding (tested: 5 µg/mL)				B9
0.406 nM	no binding (tested: 5 µg/mL)	no binding (tested: 5 µg/mL)				B10
